Measurements: US20240417450A1 (UNIVERSITY OF TOKYO, published 2024)
Numbering of substitutions follows the chain as printed.

Legend:
[1] = molecular target: T1, E. coli wild-type SHMT, GST fusion protein (E. coli, UniProt P0A825 1-417); test: ELISA, GST fusion protein immobilised at 2 ug/ml, antibody dilution series
T1 construct: Overexpressed in E. coli as a GST fusion protein, purified and immobilised on the ELISA plate at 2 ug/ml; not shown: Glutathione-S-transferase (GST) fusion partner
T1 sequence: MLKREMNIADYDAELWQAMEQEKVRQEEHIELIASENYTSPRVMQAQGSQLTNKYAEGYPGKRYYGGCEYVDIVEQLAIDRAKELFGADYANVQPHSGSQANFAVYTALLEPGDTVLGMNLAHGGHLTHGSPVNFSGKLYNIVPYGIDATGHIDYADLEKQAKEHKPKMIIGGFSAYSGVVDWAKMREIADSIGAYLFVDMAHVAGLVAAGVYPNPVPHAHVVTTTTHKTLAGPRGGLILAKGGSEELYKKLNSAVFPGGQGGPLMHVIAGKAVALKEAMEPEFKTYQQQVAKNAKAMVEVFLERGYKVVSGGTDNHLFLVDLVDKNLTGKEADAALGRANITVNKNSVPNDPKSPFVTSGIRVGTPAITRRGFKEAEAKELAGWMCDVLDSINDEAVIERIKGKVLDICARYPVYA

[2] = molecular target: T2, E. coli SHMT (25-45) (E. coli); test: X-ray crystal structure of the Fab-peptide complex
T2 construct: Final purified peptide used for crystallisation
T2 peptide: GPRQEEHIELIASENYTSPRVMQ

[3] = molecular target: T3, C. difficile iPGM (486-509) (C. difficile); test: X-ray crystal structure of the Fab-peptide complex
T3 construct: Final purified peptide used for crystallisation
T3 peptide: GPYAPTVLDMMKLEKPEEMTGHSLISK

[4] = molecular target: T4, E. coli iPGM (E. coli, UniProt P37689 1-514, limits assumed); test: Western blot
T4 sequence (looked up): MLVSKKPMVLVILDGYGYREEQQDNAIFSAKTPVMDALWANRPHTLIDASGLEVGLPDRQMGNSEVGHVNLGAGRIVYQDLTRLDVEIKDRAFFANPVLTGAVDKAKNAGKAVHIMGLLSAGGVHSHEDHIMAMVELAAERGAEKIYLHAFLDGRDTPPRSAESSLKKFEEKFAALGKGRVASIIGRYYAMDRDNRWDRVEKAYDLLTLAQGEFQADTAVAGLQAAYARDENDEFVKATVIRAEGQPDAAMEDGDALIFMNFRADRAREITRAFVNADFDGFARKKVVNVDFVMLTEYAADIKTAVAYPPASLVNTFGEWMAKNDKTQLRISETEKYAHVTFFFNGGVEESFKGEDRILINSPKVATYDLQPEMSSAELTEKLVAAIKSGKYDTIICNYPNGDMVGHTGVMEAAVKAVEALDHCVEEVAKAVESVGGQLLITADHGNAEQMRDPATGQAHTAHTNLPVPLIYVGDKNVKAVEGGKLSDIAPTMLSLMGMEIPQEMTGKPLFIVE

B1: RS_H007_L001 (antibody, V domains shown)
VH: EVQLQQSGSELVKSGASVKLSCTVSGFNFTNYYIHWVRQRTEQGLEWIGRIDPENNQTTYAPKFQGKATMTADTSSNTAYLQLTSLTSEDTAVYYCARSTVLDYWGHGTTLTVSS
VL: DVLMTQSPASLSVSLGDRATISCRASQSIVHTNGNTYLEWYLQKPGQSPKLLIYKVSNRFSGVPDRFSGSGSGTDFILKISRVEAEDLGVYYCFQGSHVPPTFGGGTKLEVK
- binding result [1]: binds

B2: RS_H000_L000GR Fab (Fab, V domains shown)
VH: B1 VH with N31D, N56D, Q57E
VL: B1 VL with S7T, A9L, S12P, R18Q, T20S
notes: Fab made by papain digestion of the W27 recombinant IgG expressed in CHO cells; also called IgG W27 Fab
- binding result [2]: binds
- binding result [3]: binds

B3: W27G2 antibody (mouse hybridoma-producing IgA) (antibody, V domains shown)
VH: B1 VH with N31D, N56D, Q57E
VL: DVLMTQTPLSLPVSLGDQASISCRASQSIVHTNGNTYLEWYLQKPGQSPKLLIYKVSNRFSGVPDRFSGSGSGTDFILKISRVEAEDLGVYYCFQGSHVPPTFGGGTKLEVKR
notes: Hybridoma-producing IgA from intestinal mucosa lamina propria B cells; also called W27 antibody; W27G2-CHT
- binding result [4]: no binding
- binding result [1]: binds

B4: RS_H007_L004 (antibody, V domains shown)
VH: B1 VH
VL: B1 VL with L11M, A25S
- binding result [1]: binds

B5: RS_H000_L005 (antibody, V domains shown)
VH: B1 VH with N31D, N56D, Q57E
VL: B1 VL with A25S
- binding result [1]: binds

B6: RS_H007_L005 (antibody, V domains shown)
VH: B1 VH
VL: B1 VL with A25S
- binding result [1]: binds

B7: RS_H000_L001 (antibody, V domains shown)
VH: B1 VH with N31D, N56D, Q57E
VL: B1 VL
notes: recombinant multimeric IgA made with H, L and J chain vectors (mainly dimers by SDS-PAGE); also called rW27
- binding result [1]: binds

B8: RS_H007_L002 (antibody, V domains shown)
VH: B1 VH
VL: B1 VL with A19V
- binding result [1]: binds
